The test system of data set [1] is HeLa Kyoto. As to the kind of experiment: melting temperature (median over replicates), in situ; higher = more thermally stable.
Data set [2] deals with HeLa Kyoto. As to the kind of experiment: thermal stability score vs G1/S (z-score of summed log2 fold changes over temperatures); higher = more thermally stable than in G1/S.
The subject of data set [3] is HeLa Kyoto. The experiment in a line: solubility in G1/S (NP-40 vs SDS abundance) (log2 ratio); higher = more soluble. As to conditions: cell cycle stage: G1/S.
Data set [4] deals with HeLa Kyoto. The experiment in a line: solubility change mitosis vs G1/S (difference of NP-40 vs SDS log2 ratios) (log2 ratio difference); higher = more soluble in mitosis.
Setting [5] is: cell cycle stage: early G1 (4.5 h after nocodazole release).
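Wherever melting temperature (median over replicates), in situ is given: HeLa Kyoto cells synchronized by double thymidine or nocodazole block, proteins quantified by TMT10plex mass spectrometry, three independent biological replicates.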
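Wherever solubility change mitosis vs G1/S (difference of NP-40 vs SDS log2 ratios) is given: synchronized HeLa Kyoto cells (double thymidine block for G1/S, nocodazole release for mitosis), protein amounts in NP-40 versus SDS lysates quantified by mass spectrometry, three biological replicates.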
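Wherever solubility in G1/S (NP-40 vs SDS abundance) is given: HeLa Kyoto cells arrested at G1/S by double thymidine block, proteins quantified by TMT10plex mass spectrometry in mild NP-40 versus SDS extracts, three biological replicates.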
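Wherever thermal stability score vs G1/S (z-score of summed log2 fold changes over temperatures) is given: synchronized HeLa Kyoto cells, proteins quantified by TMT10plex mass spectrometry, three biological replicates, mitosis taken 0.5 h after nocodazole release, G1/S directly after double thymidine block.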

Regarding “MCGSALAFFTAAFVCLQNDRRGPASFLWAAWVFSLVLGLGQGEDNRCASSNAASCARCLALGPECGWCVQEDFISGGSRSERCDIVSNLISKGCSVDSIEYPSVHVIIPTENEINTQVTPGEVSIQLRPGAEANFMLKVHPLKKYPVDLYYLVDVSASMHNNIEKLNSVGNDLSRKMAFFSRDFRLGFGSYVDKTVSPYISIHPERIHNQCSDYNLDCMPPHGYIHVLSLTENITEFEKAVHRQKISGNIDTPEGGFDAMLQAAVCESHIGWRKEAKRLLLVMTDQTSHLALDSKLAGIVVPNDGNCHLKNNVYVKSTTMEHPSLGQLSEKLIDNNINVIFAVQGKQFHWYKDLLPLLPGTIAGEIESKAANLNNLVVEAYQKLISEVKVQVENQVQGIYFNITAICPDGSRKPGMEGCRNVTSNDEVLFNVTVTMKKCDVTGGKNYAIIKPIGFNETAKIHIHRNCSCQCEDNRGPKGKCVDETFLDSKCFQCDENKCHFDEDQFSSESCKSHKDQPVCSGRGVCVCGKCSCHKIKLGKVYGKYCEKDDFSCPYHHGNLCAGHGECEAGRCQCFSGWEGDRCQCPSAAAQHCVNSKGQVCSGRGTCVCGRCECTDPRSIGRFCEHCPTCYTACKENWNCMQCLHPHNLSQAILDQCKTSCALMEQQHYVDQTSECFSSPSYLRIFFIIFIVTFLIGLLKVLIIRQVILQWNSNKIKSSSDYRVSASKKDKLILQSVCTRAVTYRREKPEEIKMDISKLNAHETFRCNF [ITGB8]”, the melting temperature with HeLa Kyoto [1] (cell cycle stage: G1/S) turned out to be 53.9 °C; in the data set on HeLa Kyoto [1] (cell cycle stage: mitosis) it was 53.8 °C. In addition, the thermal stability score in the data set with HeLa Kyoto [2] (setting [5]) was -0.935; with HeLa Kyoto [2] (cell cycle stage: mitosis), -1.88. Also, in the data set on HeLa Kyoto [3], the “solubility in G1/S (log2)” value was -0.0596. Besides, the “solubility change mitosis (log2)” value in the data set with HeLa Kyoto [4] is -0.0048.

Take “MGQIEWAMWANEQALASGLILITGGIVATAGRFTQWYFGAYSIVAGVFVCLLEYPRGKRKKGSTMERWGQKYMTAVVKLFGPFTRNYYVRAVLHLLLSVPAGFLLATILGTACLAIASGIYLLAAVRGEQWTPIEPKPRERPQIGGTIKQPPSNPPPRPPAEARKKPSEEEAAVAAGGPPGGPQVNPIPVTDEVV [CYBA]”: the melting temperature came to 54.8 °C in the data set with HeLa Kyoto [1] (cell cycle stage: G1/S) and 54 °C in the data set with HeLa Kyoto [1] (cell cycle stage: mitosis). The figures for the thermal stability score in the data set with HeLa Kyoto [2] (setting [5]) and with HeLa Kyoto [2] (cell cycle stage: mitosis) were -0.561 and -1.21, respectively. The “solubility in G1/S (log2)” value in the data set with HeLa Kyoto [3] turned out to be 0.005. The “solubility change mitosis (log2)” value in the data set on HeLa Kyoto [4] is -0.167.

As to “MKAFHTFCVVLLVFGSVSEAKFDDFEDEEDIVEYDDNDFAEFEDVMEDSVTESPQRVIITEDDEDETTVELEGQDENQEGDFEDADTQEGDTESEPYDDEEFEGYEDKPDTSSSKNKDPITIVDVPAHLQNSWESYYLEILMVTGLLAYIMNYIIGKNKNSRLAQAWFNTHRELLESNFTLVGDDGTNKEATSTGKLNQENEHIYNLWCSGRVCCEGMLIQLRFLKRQDLLNVLARMMRPVSDQVQIKVTMNDEDMDTYVFAVGTRKALVRLQKEMQDLSEFCSDKPKSGAKYGLPDSLAILSEMGEVTDGMMDTKMVHFLTHYADKIESVHFSDQFSGPKIMQEEGQPLKLPDTKRTLLFTFNVPGSGNTYPKDMEALLPLMNMVIYSIDKAKKFRLNREGKQKADKNRARVEENFLKLTHVQRQEAAQSRREEKKRAEKERIMNEEDPEKQRRLEEAALRREQKKLEKKQMKMKQIKVKAM [CCDC47]”, the melting temperature in the data set on HeLa Kyoto [1] (cell cycle stage: G1/S) was determined as 52.9 °C; in the data set on HeLa Kyoto [1] (cell cycle stage: mitosis) it was 52.7 °C. The thermal stability score was 0.286 in the data set on HeLa Kyoto [2] (setting [5]) and -1.13 with HeLa Kyoto [2] (cell cycle stage: mitosis). In addition, in the data set on HeLa Kyoto [3], the “solubility in G1/S (log2)” value is -0.0628. The “solubility change mitosis (log2)” value in the data set with HeLa Kyoto [4] stood at 0.000886.
